# Biological target: RAB1A (Homo sapiens (Human), UniProt P62820)
# Experiment: BLI
# Sequence of RAB1A (P62820 6-177): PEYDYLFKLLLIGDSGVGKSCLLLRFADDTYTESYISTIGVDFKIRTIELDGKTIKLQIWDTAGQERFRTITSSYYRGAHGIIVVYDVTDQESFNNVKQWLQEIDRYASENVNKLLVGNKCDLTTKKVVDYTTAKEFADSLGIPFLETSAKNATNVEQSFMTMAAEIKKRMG
binder,measurement,value
WDR44 (protein) VMGPQRPRSNSGRELTDEEILASVMIKNLDTGEEIPLSLAEEKLPTGINPLTLHIM,Kd,> 500 nM

# From PMC9808001 (2022)
